The text below walks through data of patent US20240123029A1 (HUMANITAS MIRASOLE S P A, published 2024).

The assay addresses T1, SARS-CoV-2 S1 protein, His Tag (SARS-CoV-2, UniProt P0DTC2 16-685).
T1 construct: domain: S1; Bought
Put plainly: ELISA, His-tagged viral protein captured on nickel plates (6.25-50 pmol/mL). Background: In an ELISA, binding on a coated surface is turned into a signal by an enzyme label.

B1: Purified C-reactive protein (CRP) (other)
chain: QTDMSRKAFVFPKESDTSYVSLKAPLTKPLKAFTVCLHFYTELSSTRGYSIFSYATKRQDNEILIFWSKDIGYSFTVGGSEILFEVPEVTVAPVHICTSWESASGIVEFWVDGKPRVRKSLKKGYTVGAEASIILGQEQDSFGGNFEGSQSLVGDIGNVNMWDFVLSPDEINTIYLGGPFSPNVLNWRALKYEVQGEVFTKPQLWP
For the molecule B1, the binding result is reported as “no binding (tested: CRP 3 µg/mL)”.
